Assay [1] deals with HA-tagged intracellular part of Smβ-Int1 (Smβ-Int1 C-term) (S. mansoni).
Assay [2] has the same target. The source holds these as a separate data set.

In assay [1], “V5-tagged SmVKR1 (wildtype venus kinase receptor 1 of S. mansoni)” had a GVBD (%) of Xenopus oocytes without L-Arg; Smβ-Int1, SmILK, SmPINCH, SmNck2 and SmVKR1 co-expressed (Exp 1) of 90%; a GVBD (%) without L-Arg; as Exp 1 with SmILKΔAnk1 in place of SmILK (Exp 2) of 0%; a GVBD (%) without L-Arg; as Exp 1 with SmNck2ΔSH3 in place of SmNck2 (Exp 5) of 10%; a GVBD (%) without L-Arg; as Exp 1 with SmPINCHΔLIM1 in place of SmPINCH (Exp 4) of 0%. In assay [1], this substance gave a GVBD (%) without L-Arg; as Exp 1 with SmPINCHΔLIM4 in place of SmPINCH (Exp 3) of 0% and a GVBD (%) without L-Arg; as Exp 1 with the ILK inhibitor QLT-0267 (1 μM) (Exp 7) of 0%. Further, in assay [2], the GVBD (%) of Xenopus oocytes without L-Arg; Smβ-Int1, SmILK and SmVKR1 co-expressed, no SmPINCH (Inj 10) turned out to be 0%; the GVBD (%) of Xenopus oocytes without L-Arg; Smβ-Int1, SmILK, SmPINCH and SmVKR1 co-expressed (Inj 11) was 80%; the GVBD (%) of Xenopus oocytes without L-Arg; Smβ-Int1, SmILK, SmPINCH, SmNck2 and SmVKR1 co-expressed, with the ILK inhibitor QLT-0267 (1 μM) (Inj 13) is 0%; the GVBD (%) of Xenopus oocytes without L-Arg; Smβ-Int1, SmILK, SmPINCH, SmNck2ΔSH3 and SmVKR1 co-expressed (Inj 15) turned out to be 10%. In addition, in assay [2], the GVBD (%) of Xenopus oocytes without L-Arg; Smβ-Int1, SmILK, SmPINCHΔLIM4 in place of SmPINCH and SmVKR1 co-expressed (Inj 14) came to 0%; the GVBD (%) of Xenopus oocytes without L-Arg; Smβ-Int1, SmILKΔAnk1 in place of SmILK, SmPINCH and SmVKR1 co-expressed (Inj 12) is 0%; the GVBD (%) of Xenopus oocytes without L-Arg; Smβ-Int1, SmPINCH and SmVKR1 co-expressed, no SmILK (Inj 9) amounted to 0%.

The values are drawn from article PMC5289644.
